Measurements taken from patent US20170137467A1 (CHROMOTEK, published 2017).
Where a chain is given by its changes, count along the chain named.

Columns and labels:
[1] = target: T1, BC2T W10A peptide (BC2TW10X library) (human); assay: BC2TW10X library pulldown with immobilized Nb, LC-MS of the supernatant
T1 construct: also called W10 permutant A
T1 peptide: Ac-PDRKAAVSHAQQ-NH2
Protocol: (§1) To investigate the binding specificity of the BC2T and derived mutants peptide libraries for each amino acid position of the sequence […] (SEQ ID NO:4) were synthesized with acetyl and amide groups located at the N-termini or C-termini respectively (Intavis). […] Incubations were performed in 300 μl PBS/0.01% CHAPS for 1 h on a HulaMixer (Life Technologies). Subsequent to a centrifugation step 10 μl supernatant were analyzed in a LC-MS procedure. Peptides were separated using an UltiMate3000 RSLCnano System (Thermo Scientific), composed of a C18 PepMap100μ-Precolumn (300 μm×5 mm; particle size: 5 μm; pore size: 100 Å—Thermo Scientific) and a C18 analytical column (Acclaim Rapid Separation LC (RSLC) Column: 150 mm×5 mm; particle size: 2.2 μm; pore size: 100 Å—Thermo Scientific). A step gradient was applied starting at 8% and ending after 20 min at 30% eluent B (80% acetonitrile, 20% H₂O, 0.1% formic acid). Peptides were analyzed using a FULL-MS-strategy detected by a Q Exactive Plus mass spectrometer (Thermo Scientific). As maximal injection time 100 ms was chosen while setting the AGC target to 3E6. The resolution was set to 70.000. Half-maximal signal areas were referenced to control precipitation approaches using a GFP-specific nanobody immobilized on agarose beads. All experiments were done in triplicates.

[2] = target: T2, BC2T W10V peptide (BC2TW10X library) (human); assay: as above
T2 construct: also called W10 permutant V
T2 peptide: Ac-PDRKAAVSHVQQ-NH2
Protocol: as §1

[3] = target: T3, BC2T W10P peptide (BC2TW10X library) (human); assay: as above
T3 construct: also called W10 permutant P
T3 peptide: Ac-PDRKAAVSHPQQ-NH2
Protocol: as §1

[4] = target: T4, BC2T W10F peptide (BC2TW10X library) (human); assay: as above
T4 construct: also called W10 permutant F
T4 peptide: Ac-PDRKAAVSHFQQ-NH2
Protocol: as §1

[5] = target: T5, BC2T W10S peptide (BC2TW10X library) (human); assay: as above
T5 construct: also called W10 permutant S
T5 peptide: Ac-PDRKAAVSHSQQ-NH2
Protocol: as §1

[6] = target: T6, BC2T W10T peptide (BC2TW10X library) (human); assay: as above
T6 construct: also called W10 permutant T
T6 peptide: Ac-PDRKAAVSHTQQ-NH2
Protocol: as §1

[7] = target: T7, BC2T W10Y peptide (BC2TW10X library) (human); assay: as above
T7 construct: also called W10 permutant Y
T7 peptide: Ac-PDRKAAVSHYQQ-NH2
Protocol: as §1

[8] = target: T8, BC2T W10E peptide (BC2TW10X library) (human); assay: as above
T8 construct: also called W10 permutant E
T8 peptide: Ac-PDRKAAVSHEQQ-NH2
Protocol: as §1

[9] = target: T9, EPDRKAAVSHWQQQS; assay: peptide aa 15-29 on microspheres, biotinylated BC2-Nb, streptavidin-PE
T9 construct: unphosphorylated counterpart of 1.m32; also called β-catenin peptide aa 15-29 without phosphorylated Ser23; phos Ser23 -
T9 peptide: EPDRKAAVSHWQQQS
Description: As negative controls, microspheres comprising Ovalbumin and the Myc-peptide ([…]) covalently coupled to OVA-microspheres were used. […] Evaluation of the PE-signals were done in a Flexmap 3D (Luminex).

[10] = target: T10, BC2T V7W; assay: positional peptide library pulldown on immobilised Nb, LC-MS of supernatant; signal ratio to control GFP-Nb (1 = not captured, near 0 = captured)
T10 construct: positional scanning library member
T10 peptide: Ac-PDRKAAWSHWQQ-NH2
Procedure, shortened: (§2)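 Unbound peptide left in supernatant after 1 h pulldown in PBS/0.01% CHAPS measured by reversed-phase LC-MS (8–30% eluent B gradient, 20 min).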

[11] = target: T11, BC2T A6N; assay: as above
T11 construct: positional scanning library member
T11 peptide: Ac-PDRKANVSHWQQ-NH2
Procedure, shortened: as §2

[12] = target: T12, BC2T D2Y; assay: as above
T12 construct: positional scanning library member
T12 peptide: Ac-PYRKAAVSHWQQ-NH2
Procedure, shortened: as §2

[13] = target: T13, BC2T K4R; assay: as above
T13 construct: positional scanning library member
T13 peptide: Ac-PDRRAAVSHWQQ-NH2
Procedure, shortened: as §2

[14] = target: T14, BC2T V7H; assay: as above
T14 construct: positional scanning library member
T14 peptide: Ac-PDRKAAHSHWQQ-NH2
Procedure, shortened: as §2

[15] = target: T15, BC2T H9D; assay: as above
T15 construct: positional scanning library member
T15 peptide: Ac-PDRKAAVSDWQQ-NH2
Procedure, shortened: as §2

[16] = target: T16, BC2T W10D; assay: as above
T16 construct: positional scanning library member
T16 peptide: Ac-PDRKAAVSHDQQ-NH2
Procedure, shortened: as §2

B1: BC2 nanobody (VHH)
VHH: QVQLVESGGGLVQPGGSLTLSCTASGFTLDHYDIGWFRQAPGKEREGVSCINNSDDDTYYADSVKGRFTIFMDNAKDTVYLQMNSLKPEDTAIYYCAEARGCKRGRYEYDFWGQGTQVTVSS
notes: Alpaca VHH, 122 aa; also called BC2-Nb; BC2 nanotrap (BC2-Nb immobilized on agarose/Sepharose beads); not shown: C-terminal 6xHis-tag added by the pHEN6 vector
binding result [1]: no binding | binding result [2]: no binding | binding result [3]: no binding | binding result [4]: no binding | binding result [5]: no binding | binding result [6]: no binding | binding result [7]: no binding | binding result [8]: no binding | binding result [9]: binds

B2: BC2-NbR106E (VHH)
VHH: B1 VHH with R106E
notes: headlock mutant of BC2-Nb; immobilised on beads in this assay
ratio [10]: 0.2 | ratio [11]: 1 | ratio [12]: 0.1 | ratio [13]: 0.1 | ratio [14]: 0.3

B3: BC2 nanobody (VHH)
VHH: B1 VHH
notes: immobilised on beads in this assay; also called BC2-Nb; BC2 nanotrap (immobilised)
ratio [15]: 0.1 | ratio [16]: 1
